# In doi:10.1101/2021.04.11.439388 (bioRxiv, 2021):
# B1: PD-L1 nanobody Nb16 (VHH linked to an Fc fragment) (VHH)
# VHH: QVQLQESGGGSVQAGGSLRLSCAASGYTDRNYWMGWFRQAPGKEREGVAALYTRTGSTYYADSVKGRFTISHDNAKNTLYLQMNSLKPEDTAVYYCAADSNAYGLAPLHHYWGQGTQVTVSS
# Columns and labels:
# mouse PD-L1-Fc [1] = target: T1, mouse PD-L1-Fc (mouse, UniProt Q9EP73); assay: ELISA
# mouse PD-L1-Fc [2] = target: T1, mouse PD-L1-Fc; assay: ELISA; remark: listed apart in the source
# T1 sequence (Q9EP73 19-239): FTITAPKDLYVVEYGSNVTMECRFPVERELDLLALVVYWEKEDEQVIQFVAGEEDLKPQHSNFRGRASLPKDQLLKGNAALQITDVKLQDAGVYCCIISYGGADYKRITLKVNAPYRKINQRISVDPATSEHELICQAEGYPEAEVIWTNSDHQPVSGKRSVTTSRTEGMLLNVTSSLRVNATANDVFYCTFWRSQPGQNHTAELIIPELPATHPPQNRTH
binder,measurement,setting,value
B1,IC50,mouse PD-L1-Fc [1],6.78 nM
same,EC50,mouse PD-L1-Fc [2],0.516 nM
